Among the data in PMC7752914 are stoichiometry N (heterotetramers in the heterooctamer) values, retold here.

The target in test [1] is α2βγ heterotetramer of wild-type HsIDH3 (human) (UniProt P50213). Nature of the test: SEC-MALS; high concentration (12 mg/ml); Superdex 200 10/300 GL, 24 °C, 10 mM HEPES pH 7.4, 200 mM NaCl, 5 mM β-ME.
Test [2] shares this target. As to the kind of experiment: SEC-MALS; low concentration (2 mg/ml); Superdex 200 10/300 GL, 24 °C, 10 mM HEPES pH 7.4, 200 mM NaCl, 5 mM β-ME.

As for “α2βγ heterotetramer of wild-type HsIDH3 (from UniProt P50213 28-366; O43837 35-385; P51553 40-393) (complex)”, the stoichiometry N (heterotetramers in the heterooctamer) in test [1] and in test [2] was 2 throughout.
